This data set in a line: soluble on expression in E. coli; label from the status in PepcDB or PDB records.
“MDFISSLIVGCAQVLCESMNMAERRGHKTDLRQAITDLETAIGDLKAIRDDLTLRIQQDGLEGRSCSNRAREWLSAVQVTETKTALLLVRFRRREQRTRMRRRYLSCFGCADYKLCKKVSAILKSIGELRERSEAIKTDGGSIQVTCREIPIKSVVGNTTMMEQVLEFLSEEEERGIIGVYGPGGVGKTTLMQSINNELITKGHQYDVLIWVQMSREFGECTIQQAVGARLGLSWDEKETGENRALKIYRALRQKRFLLLLDDVWEEIDLEKTGVPRPDRENKCKVMFTTRSIALCNNMGAEYKLRVEFLEKKHAWELFCSKVWRKDLLESSSIRRLAEIIVSKCGGLPLALITLGGAMAHRETEEEWIHASEVLTRFPAEMKGMNYVFALLKFSYDNLESDLLRSCFLYCALFPEEHSIEIEQLVEYWVGEGFLTSSHGVNTIYKGYFLIGDLKAACLLETGDEKTQVKMHNVVRSFALWMASEQGTYKELILVEPSMGHTEAPKAENWRQALVISLLDNRIQTLPEKLICPKLTTLMLQQNSSLKKIPTGFFMHMPVLRVLDLSFTSITEIPLSIKYLVELYHLSMSGTKISVLPQELGNLRKLKHLDLQRTQFLQTIPRDAICWLSKLEVLNLYYSYAGWELQSFGEDEAEELGFADLEYLENLTTLGITVLSLETLKTLFEFGALHKHIQHLHVEECNELLYFNLPSLTNHGRNLRRLSIKSCHDLEYLVTPADFENDWLPSLEVLTLHSLHNLTRVWGNSVSQDCLRNIRCINISHCNKLKNVSWVQKLPKLEVIELFDCREIEELISEHESPSVEDPTLFPSLKTLRTRDLPELNSILPSRFSFQKVETLVITNCPRVKKLPFQERRTQMNLPTVYCEEKWWKALEKDQPNEELCYLPRFVPN”: the “soluble on expression in E. coli” value is reported as “not soluble”.

Take “MDFSGKNVWVTGAGKGIGYATALAFVEAGAKVTGFDQAFTQEQYPFATEVMDVADAAQVAQVCQRLLAETERLDALVNAAGILRMGATDQLSKEDWQQTFAVNVGGAFNLFQQTMNQFRRQRGGAIVTVASDAAHTPRIGMSAYGASKAALKSLALSVGLELAGSGVRCNVVSPGSTDTDMQRTLWVSDDAEEQRIRGFGEQFKLGIPLGKIARPQEIANTILFLASDLASHITLQDIVVDGGSTLGA”: the “soluble on expression in E. coli” value is “soluble”.

“MDFSNRLLLLLEVTELGSFTNVAEQKNLDRSVISKQISRLEEELGVRLLNRTTRSLSLTAAGNEMVNQAKLLRDLLNNTHRLAQNYHSEPRGILRITSSMMFGRQYVQDAISVFQKQYPDVKCELRLEDRVVDIVQEGFDIGFRIGRPKNSSLISRKIARSRLLIVASPDFIQQHGKIETIEKLESLPATIYAAPGLFIDKFTYLDENKVEQQFHLNVAYKVNDVEMVVKSAVAGNTLAVVTAQMIENEIIEGKLIPIMTHLNLEDFGTFFAVYPHRDAPIKTKLFIDVLKSIIGEDSPMWEKNIPDFAKLYGGTK”: the “soluble on expression in E. coli” value was “not soluble”.

In the case of “MDFYYLPGSAPCRAVQMTAAAVGVELNLKLTNLMAGEHMKPEFLKINPQHCIPTLVDNGFALWESRAICTYLAEKYGKDDKLYPKDPQKRAVVNQRLYFDMGTLYQRFADYYYPQIFAKQPANAENEKKMKDAVDFLNTFLDGHKYVAGDSLTIADLTVLATVSTYDVAGFELAKYPHVAAWYERTRKEAPGAAINEAGIEEFRKYFEK”, the “soluble on expression in E. coli” value was “soluble”.

Regarding “MDHYLVPYNQRANHSKPIPPFLLDLDSQSVPDALKKQTNDYYILYNPALPREIDVELHKSLDHTSVVCCVKFSNDGEYLATGCNKTTQVYRVSDGSLVARLSDDSAANKDPENLNTSSSPSSDLYIRSVCFSPDGKFLATGAEDRLIRIWDIENRKIVMILQGHEQDIYSLDYFPSGDKLVSGSGDRTVRIWDLRTGQCSLTLSIEDGVTTVAVSPGDGKYIAAGSLDRAVRVWDSETGFLVERLDSENESGTGHKDSVYSVVFTRDGQSVVSGSLDRSVKLWNLQNANNKSDSKTPNSGTCEVTYIGHKDFVLSVATTQNDEYILSGSKDRGVLFWDKKSGNPLLMLQGHRNSVISVAVANGSSLGPEYNVFATGSGDCKARIWKYKKIAPN”, the “soluble on expression in E. coli” value is “soluble”.

As to “MDIARPSCYETVRNDDDKKSSDADIYNTSVKLEDPSAPSHDEQWTYNFFITPLNLNISPTDFKIPNDKSVKYTVKCEAKIKQDLIVQVHSLFFEIVGARCKRGVTSQEFHILSENETMTFEVGMKDLNNVSYENYQAANLLSPAGFITFTHFKSLRKDDASWGVKDPKKLMKVVTKGDGGRYNLEKLLVETETDSIKKISEDFAMILQQGMDDKRTKEQEMKMGNMEMFATEEYVEKWKKDKKAIEIAQKNQREWNDKKLEKPGMQKKKEKKCNIM”, the “soluble on expression in E. coli” value is listed as “not soluble”.

Regarding “MDIDYTVGEVELSYKPKFKNIYKVVSSEDAYKYLLPTYKEGTICYKEYFKVLFLNQASQVLGYTLISEGGITDTTVDVRVILQAALLTNSVAIILAHNHPSGSMKPSRQDMEITKQVKEAARLMRITVTDHLILTDAGYYSFADEGEL”, the “soluble on expression in E. coli” value was “not soluble”.

In the case of “MDIFPGRLYLKKEVETVEGLQEILAISANRCFRCGNTNPFLFGKMTCASCDREDCLYCRNCIVMGRVNSCQKLYYQKADILPERIESCLGWEGTLSPGQKKAASAVVSSIKQKVDMLLWAVAGSGKTEMMFEGMDLALKQGFRICIASPRVDVCLELYPRLQAVFKEIDIVCLYGDSKDKYQGEQFVVATTHQLIRFYDTFQVIFIDEVDAFPYAKDPFLEYAVRKARTKVGSTIIITATPEKKWQQECATGKRNFVKIPARYHRKQLPVPRTCWIGPWKKNLAQGKITLKLINWIKKAELKNQPVLIFFPEIEAMNQFAEALVNYDFTRPVTVHSADQLRKEKVEWLREGKIKLLLTTTILERGVTFKDVQVAVFGSEGRIFTEAALVQIAGRAGRKLTHPTGDVCFFHYGKTTEMNRAITHIKKMNQLGFKEGLLDD”, the “soluble on expression in E. coli” value was “not soluble”.

For the sequence “MDITITLDRSEQADYIYQQIYQKLKKEILSRNLLPHSKVPSKRELAENLKVSVNSVNSAYQQLLAEGYLYAIERKGFFVEELDMFSAEEHPPFALPDDLKEIHIDQSDWISFSHMSSDTDHFPIKSWFRCEQKAASRSYRTLGDMSHPQGIYEVRAAITRLISLTRGVKCRPEQMIIGAGTQVLMQLLTELLPKEAVYAMEEPGYRRMYQLLKNAGKQVKTIMLDEKGMSIAEITRQQPDVLVTTPSHQFPSGTIMPVSRRIQLLNWAAEEPRRYIIEDDYDSEFTYDVDSIPALQSLDRFQNVIYMGTFSKSLLPGLRISYMVLPPELLRAYKQRGYDLQTCSSLTQLTLQEFIESGEYQKHIKKMKQHYKEKRERLITALEAEFSGEVTVKGANAGLHFVTEFDTRRTEQDILSHAAGLQLEIFGMSRFNLKENKRQTGRPALIIGFARLKEEDIQEGVQRLFKAVYGHKKIPVTGD”, the “soluble on expression in E. coli” value is on record as “not soluble”.

Turning to “MDKFKSMTELKELTKEGKDWEIECENRSSIVTILALHGGGIEPATTELAYTIAHCGDYNYFSFKGMRSKGNNELHVTSTHYDDQIALDLVRGSQRTVAIHGCEGNESVAYIGGSDDRLIELITESLEDIGISVREAPHHISGTQENNIVNMTQTQGGVQLELTAQLRKELFKNRKSSLEHHHHHH”, the “soluble on expression in E. coli” value is reported as “not soluble”.

Turning to “MDKGLSRLVELLNARGASMEEMVRLLEEERASIVALQAERLQAAVEQKVQVAARMEALDGDCRRVIADEARVRGLGEATLSPLLAGNPSPEKTELAGLQTKLSTLAQEIKGMIADNRRLLETSMVTVGRSLAFFQSRLTVAETYGNSGSMVERSSGGILRKEI”, the “soluble on expression in E. coli” value is “not soluble”.

As for “MDKIIKSIAQSGAFRAYVLDSTETVALAQEKHNTLSSSTVALGRTLIANQILAANQKGDSKITVKVIGDSSFGHIISVADTKGHVKGYIQNTGVDIKKTATGEVLVGPFMGNGHFVTIIDYGTGNPYTSTTPLITGEIGEDFAYYLTESEQTPSAIGLNVLLDENDKVKVAGGFMVQVLPGASEEEIARYEKRLQEMPAISHLLASKNHVDALLEAIYGDEPYKRLSEEPLSFQCDCSRERFEAALMTLPKADLQAMIDEDKGAEIVCQFCGTKYQFNESDLEAIISDKA”, the “soluble on expression in E. coli” value is “not soluble”.

Consider “MDKLGLSKRGYFDFALKNKKWILLAVSGYGAFRVYHSPSISQKRKRISKLFTLLLNLIEAASDSAETVSVISKDLTEFLRSDSDQIPNSLKQISKIAKSDELNSSLIRFTQAMTVGLIRGIDDGSGSGFTDRVMDKLFTKSGSGFASAIVGSFARNLVVALYSSAGDGSNSKLLDAVFSDDGRRLIGDCVQRFVSTAVSVYLDKTSDVNVFDDLFAGLTNPKHEGKVKQTLVTLCNSAVETFVRASRKPVQLNRSSSCQDSSQTLTVGSTKQATWIDRVSSSLSVPSNRKYVVDLTGRVTFETVRSLLEVLIERANGKVESYVEKVRERGNETRRFVRVKTSLLHSLCLSLCLQIVEAPWMLTPRN”, for which the “soluble on expression in E. coli” value is recorded as “not soluble”.

The record behind these values is the DeepSol protein solubility set.
